From PMC9835603, “A conserved SH3-like fold in diverse putative proteins tetramerizes into an oxidoreductase providing an antimicrobial resistance phenotype” (Philosophical Transactions of the Royal Society B: …, 2023)
Where “and” joins values, the source holds several entries; their conditions need not be identical. Equal entries are not always repeated. Where two headings read alike, the source gives them in different places.

What was measured:
DfrB-H5 = molecular target: T1, DfrB-H5 (Methylobacterium pseudosasicola, UniProt A0A1I4V6W3); assay: dihydrofolate reductase activity assay at […] nm with purified enzyme; Ki from IC50 by Cheng-Prusoff; type: biochemical
T1 construct: gene SAMN05192568_10896; full-length 365-residue protein, N-terminal His6 tag

[1] = tested on: NC(=O)C1=CN([C@@H]2O[C@H](COP(=O)(O)OP(=O)(O)OC[C@H]3O[C@@H](n4cnc5c(N)ncnc54)[C@H](OP(=O)(O)O)[C@@H]3O)[C@@H](O)[C@H]2O)C=CC1; assay: steady-state kinetics (KM) with purified enzyme; type: biochemical, Escherichia coli; settings: varied: cofactor
[2] = molecular target: DfrB-H5 (distant DfrB homologue from Methylobacterium pseudosasicola) (Methylobacterium pseudosasicola); assay: negative-stain electron microscopy; purified protein from a single gel filtration peak, 40 ng/ul, uranyl formate stain, two-dimensional classification
[3] = molecular target: DfrB-H5 (distant DfrB homologue from Methylobacterium pseudosasicola) (Methylobacterium pseudosasicola); assay: as above; remark: listed apart in the source
[4] = molecular target: His6-DfrB1 (type B dihydrofolate reductase DfrB1); assay: as above
[5] = molecular target: His6-DfrB1 (type B dihydrofolate reductase DfrB1); assay: SEC-MALS; SEC-MALLS; Superdex 200 10/300 GL for DfrB-H5, Superdex 75 10/300 GL for DfrB1, 0.4 ml/min

`O=C(O)c1ccc2[nH]c(-c3ccc(OCCCCCOc4ccc(-c5nc6cc(C(=O)O)ccc6[nH]5)cc4)cc3)nc2c1` [compound 1, 2,2′-[1,5-pentanediylbis(4-oxyphenylene)]-bis-1H-benzimidazole-5-carboxylic acid] was tested, and the Ki (DfrB-H5; read-out: 1 / Ki) was 12 ± 6 µM.

`CC1(C)Nc2nc(N)[nH]c(=O)c2N=C1C(=O)NCCN1CCC(SC[C@H]2O[C@@H](n3cnc4c(N)ncnc43)[C@H](O)[C@@H]2O)CC1` [compound 2, 2-amino-N-(2-(4-((((2S,3S,4R,5R)-5-(6-amino-9H-purin-9-yl)-3,4-dihydroxytetrahydrofuran-2-yl)methyl)thio)piperidin-1-yl)ethyl)-7,7-dimethyl-4-oxo-3,4,7,8-tetrahydropteridine-6-carboxamide] was tested, and the Ki (DfrB-H5; read-out: 2 / Ki) was 30 ± 10 µM.

In the case of DfrB1 (Escherichia coli; Y69L), the Km [1] is reported as 170 ± 20 µM.

For “DfrB-H5 (distant DfrB homologue from Methylobacterium pseudosasicola) (enzyme)”, the stoichiometry N [2] was 4 and the stoichiometry N [3] was 2 and 3.

“His6-DfrB1 (type B dihydrofolate reductase DfrB1) (enzyme)” was tested, and the stoichiometry N [4] was 4 and the stoichiometry N [5] was 4.
